PMC314469, “Protein Interaction Networks by Proteome Peptide Scanning” (PLoS Biology, 2004)

T1: amphyphisin SH3 (AMPH_HUMAN), P49418
T1 chain: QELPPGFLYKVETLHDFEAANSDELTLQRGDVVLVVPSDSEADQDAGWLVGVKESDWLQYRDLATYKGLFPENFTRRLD

B1: Q9Y2K7 133-146 (peptide)
chain: LTVTLQRPTKELHG
B2: Q16827 346-360 (peptide)
chain: LTWLPPKPPTAFDG
B3: Q9BQL3 78-91 (peptide)
chain: LSGGLKRPSTRTPN
B4: Q14324 1104-1117 (peptide)
chain: LTLNIRRPSPFDAG
B5: Q9UK56 265-278 (peptide)
chain: LVNGFLRPLRMAAS
B6: Q03112 565-579 (peptide)
chain: LTPVPSKPPVTPAT
B7: Q96NX2 418-431 (peptide)
chain: LTVAIRRPPDLGGP
B8: Q9HAJ1 68-81 (peptide)
chain: LVIRLRRPPLRYPR
B9: Q9Y2E4 57-70 (peptide)
chain: LVNTLKRPKRPPLR
B10: Q9C0B5 292-305 (peptide)
chain: APRYLGRPKKEKTI
B11: Q96QH2 325-339 (peptide)
chain: LSDFPKKPPQPELG
B12: Q96S42 159-172 (peptide)
chain: LSKWLKRPGALEKQ
B13: Q01113 359-372 (peptide)
chain: LTSGPARPWKSVAL
B14: Q9P2W0 105-118 (peptide)
chain: LSSPLRRPWDQAQH
B15: Q96FL6 71-84 (peptide)
chain: LRRLLKRPELEEIF
B16: Q9UM54 753-766 (peptide)
chain: LTKVFFRPGKFAEF
B17: Q13972 262-275 (peptide)
chain: LVNNFLRPLRMAAS
B18: Q06889 251-264 (peptide)
chain: LTLKPIRPRKYPNR
B19: P09172 129-142 (peptide)
chain: LTLLFKRPFGTSDP
B20: Q9NYU0 896-909 (peptide)
chain: LRRHPSRPMRQSRR
B21: Q96Q04 431-445 (peptide)
chain: LSERPPRPPPPPPP
B22: P53621 15-28 (peptide)
chain: LSFHPKRPWILTSL
B23: Q9P2P9 1564-1577 (peptide)
chain: LRWGFSRPRKDKGL
B24: Q9H6B9 44-57 (peptide)
chain: LTHVLSRPRRGSSG
B25: P22105 891-904 (peptide)
chain: LSQPPRRPWGNLTA
B26: Q14997 962-975 (peptide)
chain: LVLEFLRPDRQGVT
B27: O60673 804-817 (peptide)
chain: LSNSLTRPQKLSPV
B28: Q9NVH6 359-372 (peptide)
chain: LTIELRRPENEFWV
B29: Q9H8Y6 68-81 (peptide)
chain: LVIRLRRPPLRSPR
B30: P39189 565-579 (peptide)
chain: LVIRPPRPPKVLGL
B31: Q9Y2E4 454-467 (peptide)
chain: LTVAIRRPTDDSNQ
B32: Q14185 317-330 (peptide)
chain: LTSGLRRPFGVAVM
B33: Q04637 602-615 (peptide)
chain: LTSFLRRPFQSPTS
B34: Q9HC66 56-69 (peptide)
chain: LVIRLPRPPKVLRL
B35: Q96EY9 124-138 (peptide)
chain: LVPVPARPPLTRGQ
B36: Q96QG0 341-354 (peptide)
chain: APRRPRRPRRPGPS
B37: Q9H0F6 46-59 (peptide)
chain: LSADPERPGRFRLE
B38: O14687 279-293 (peptide)
chain: LSPRPEKPPEEPGQ
B39: P27815 35-48 (peptide)
chain: APRAPRRPRSPPSS
B40: Q9H3C0 95-109 (peptide)
chain: LVIRPPRPPKVLRL
B41: Q9NWE5 158-171 (peptide)
chain: LSLLLKRPWDPAVG
B42: O15450 763-776 (peptide)
chain: APVPLLRPHRPSGP

Target: T1, amphyphisin SH3 (AMPH_HUMAN), P49418
Assay: SPOT array

Row | Binder | normalised SPOT signal, Boehringer light units (BLU); mean over the file's lines of this peptide
1 | B1 | 94.9
2 | B2 | 24
3 | B3 | 22.4
4 | B4 | 8.1
5 | B5 | 4910
6 | B6 | 55.4
7 | B7 | 23.5
8 | B8 | 387
9 | B9 | 408
10 | B10 | 7.1
11 | B11 | 64.9
12 | B12 | 21.1
13 | B13 | 142
14 | B14 | 100
15 | B15 | 35.9
16 | B16 | 132
17 | B17 | 12100
18 | B18 | 482
19 | B19 | 41
20 | B20 | 3450
21 | B21 | 341

Row | Binder | normalised SPOT signal, Boehringer light units (BLU); mean over the file's lines of this peptide
22 | B22 | 23.4
23 | B23 | 259
24 | B24 | 2960
25 | B25 | 60.8
26 | B26 | 732
27 | B27 | 120
28 | B28 | 60
29 | B29 | 90.6
30 | B30 | 12400
31 | B31 | 29.3
32 | B32 | 35.6
33 | B33 | 70.3
34 | B34 | 1960
35 | B35 | 2950
36 | B36 | 2420
37 | B37 | 37.1
38 | B38 | 46.1
39 | B39 | 92.3
40 | B40 | 14800
41 | B41 | 30
42 | B42 | 1350

target: endophilin SH3 (SH3G2_HUMAN), Q99962; assay: SPOT array

Row | Binder | normalised SPOT signal, Boehringer light units (BLU); mean over the file's lines of this peptide
43 | B1 | 192
44 | B2 | 71.7
45 | B3 | 27
46 | B4 | 159
47 | B5 | 176
48 | B6 | 37
49 | B7 | 17.9
50 | B8 | 6210
51 | B9 | 48
52 | B10 | 69.5
53 | B11 | 95.7
54 | B12 | 67.5
55 | B13 | 428
56 | B14 | 280
57 | B15 | 59.1
58 | B16 | 199
59 | B17 | 1250
60 | B18 | 102
61 | B19 | 44.1
62 | B20 | 412
63 | B21 | 944

Row | Binder | normalised SPOT signal, Boehringer light units (BLU); mean over the file's lines of this peptide
64 | B22 | 121
65 | B23 | 102
66 | B24 | 170
67 | B25 | 154
68 | B26 | 49.7
69 | B27 | 106
70 | B28 | 52.4
71 | B29 | 12900
72 | B30 | 20800
73 | B31 | 158
74 | B32 | 43
75 | B33 | 1560
76 | B34 | 2110
77 | B35 | 3430
78 | B36 | 1500
79 | B37 | 121
80 | B38 | 39.8
81 | B39 | 257
82 | B40 | 19500
83 | B41 | 38.6
84 | B42 | 704
